Experimental data as given in publication PMC5148173.

Columns and labels:
[1] = biological target: N-terminally hexahistidine tagged wt N_TAIL (C-terminal domain of the MeV nucleoprotein N, aa 401-525) (measles virus (Edmonston B)) (UniProt P04851); test: ITC; settings: domain or fragment
[2] = biological target: N-terminally hexahistidine tagged N_TAIL R497G (measles virus (Edmonston B)) (UniProt P04851); test: ITC; N_TAIL (25-180 uM) in the cell, XD (300-960 uM) in the microsyringe, 19 injections of 2 uL; 20 C; 10 mM Tris/HCl pH 8, 150 mM NaCl; single set of sites model
[3] = biological target: N-terminally hexahistidine tagged N_TAIL R490S (measles virus (Edmonston B)) (UniProt P04851); test: as above
[4] = biological target: N_TAIL S491L fused to a Gaussia luciferase fragment (glu-PCA) (measles virus) (UniProt P04851); test: split reporter (BiFC, NanoBiT); KD estimated from the glu-PCA luminescence with the empirically determined equation relating luminescence and the ITC KD values (Fig 4)

With “C-terminally hexahistidine tagged MeV XD (X domain of the phosphoprotein P, aa 459-507) (from UniProt P03422 459-507)” the Kd [1] was 3 µM.

With “C-terminally hexahistidine tagged MeV XD (X domain of the phosphoprotein P, aa 459-507) (from UniProt P03422 459-507) (domain or fragment)” the Kd [2] was 44 µM, the Kd [3] was 20 µM and the fold decrease in the binding affinity against wt N TAIL [3] was 7 fold.

Work on “XD of the monomeric split-luciferase reassembly assay (glu-PCA) (from UniProt P03422 376-507) (domain or fragment)” yielded a Kd [4] of 85 µM.
